Article PMC4568413, “Functional analysis of the sporulation-specific diadenylate cyclase CdaS in Bacillus thuringiensis” (Frontiers in Microbiology, 2015)

Biological target: the molecule itself
Experiment: SEC; Superdex 200HR 10/30; about 10 mg/mL CdaS loaded (1 mL); 25 mM Tris-HCl pH 8.0, 150 mM NaCl; 0.5 mL/min; calibrated with Bio-Rad protein standards

B1: CdaS protein from Bacillus thuringiensis BMB171 (enzyme, UniProt D5TM67 1-201, looked up)
chain: MHEWGLSEELKIQTKQMIEIAEKELSIMRNAIDKEDECILCKMEDIHHMLANVQTLAATYYIQAYLSPYTESSSFITTAIQHLSARKHGALIVVERNETLEALIQTGTTLNAHLTAPLLESIFYPGNPLHDGAVLVKNNHIVSAANILPLTKSTEVDPELGTRHRAAIGLSEKSDALILVVSEETGRTSFALNGILYTISL
notes: CdaS (cyclic di-AMP synthase, sporulation-specific; N-terminal YojJ domain and C-terminal DAC domain) of Bacillus thuringiensis BMB171; full length, the truncated constructs end at residue 201; cdaS gene 606 bp; theoretical monomer mass 23.3 kDa; Cloned in NcoI and XhoI sites of pET28b; also called B. thuringiensis CdaS; wild type CdaS; source: E. coli BL21(DE3) harboring pET28b-cdaS, purified …
stoichiometry N: 6
